Data: patent US20250215091A1, “Anti-GAL3 Antibodies and Compositions” (Les Laboratoires Servier, priority 2022, published 2025)

B1: B12: anti-Gal3 monoclonal antibody, IgG1 format; VH SEQ ID NO 54, VL SEQ ID NO 55 (antibody, V domains shown)
VH: EVQLVESGGSLVKPGGSLRLSCAASGFTFSNDDMNWVRQAPGKGLEWISSIDGSSRSIYYADFVKGRFTISRDNAKNSLYLQMNSLRAEDTAVYYCVRSSGYSGGGMDVWGRGTLVTVSS
VL: QSVLTQPASVSGSPGQSITISCAGTSSDVGGSYNVAWYQQHPGKAPKLMIYSDSYRPSGVSNRFSGSKSGNTASLTISGLQAEDEADYYCSSYTSNSARVFGGGTKLEIK
modifications: IgG1 constant region
B2: H10-G1: germline framework variant of H10; Table 3 lists H10-G with VH SEQ ID NO 90, VL SEQ ID NO 91 (antibody, V domains shown)
VH: EVQLVESGGGLVKPGGSLRLSCAASGFTFSNYYMNWVRQAPGKGLEWISYINGASRDISYADSVKGRFTISRDNAKNSLYLQMNSLRAEDTAVYYCVRSSYGYSNYGSGMDVWGRGTLVTVSS
VL: QSALTQPASVSGSPGQSITISCTGTSSDVGGSYNVAWYQQHPGKAPKLMIYNDANRPSGVSNRFSGSKSGNTASLTISGLQAEDEADYYCSSNTADSTRVFGGGTKLEIK

What was measured:
[1] = test system: human Gal3 full-length (Hu-Gal3-FL) and CRD domain (Hu-Gal3-CRD); assay: IgG cross-reactivity ELISA on human Gal3; format: binding; settings: purified IgGs 15-20 μg/mL; FIG. 3
Sequence of human Gal3 full-length (Hu-Gal3-FL) and CRD domain (Hu-Gal3-CRD) (P17931 118-250 limits assumed): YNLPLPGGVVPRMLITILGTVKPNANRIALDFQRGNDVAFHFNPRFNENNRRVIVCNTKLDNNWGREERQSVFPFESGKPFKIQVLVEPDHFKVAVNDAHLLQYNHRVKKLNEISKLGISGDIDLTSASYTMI
Method: (§1) Anti-Gal3 antibodies human/mouse cross-reactivity was tested by ELISA on human Gal3 full-length (Hu-Gal3-FL) and CRD domain (Hu-Gal3-CRD), and on murine Gal3 (m-Gal3-FL).
(§2) Hu-Gal3-FL, Hu-Gal3-CRD and m-Gal3-FL were immobilized at 3 μg/mL via their histidine tag on functionalized microplates. Purified IgGs were added into the wells (15-20 μg/mL final concentration) and detected with an anti-Fab.HRP antibody. A control rabbit antibody directed against Hu-Gal3 (Abcam ab53082 reference) was used at 5 μg/mL as antigen-coating positive control and detected with an anti-rabbit.HRP secondary antibody (7074S-Cell Signaling reference).

murine Gal3 (m-Gal3-FL) = molecular target: T1, murine Gal3 (m-Gal3-FL) (Mus musculus, UniProt P16110); assay: IgG cross-reactivity ELISA on murine Gal3; format: binding; settings: purified IgGs 15-20 μg/mL; FIG. 3
T1 construct: Determination of Kd values on human and mouse full-length Gal3; purchased Novalix
T1 sequence (P16110 whole entry): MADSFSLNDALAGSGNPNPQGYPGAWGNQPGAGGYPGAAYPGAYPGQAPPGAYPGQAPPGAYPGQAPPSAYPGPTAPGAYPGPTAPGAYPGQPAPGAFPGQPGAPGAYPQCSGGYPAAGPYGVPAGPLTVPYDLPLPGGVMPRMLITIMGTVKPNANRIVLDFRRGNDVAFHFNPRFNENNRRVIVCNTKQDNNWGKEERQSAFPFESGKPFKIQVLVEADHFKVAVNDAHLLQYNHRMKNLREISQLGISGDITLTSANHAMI
Method: as §1, §2

Hu-Gal3-FL = molecular target: T2, Hu-Gal3-FL (Homo sapiens, UniProt P17931); assay: ELISA dose-response EC50 on human Gal3; settings: ELISA binding on Hu-Gal3-FL
T2 construct: made in house
T2 sequence (P17931 whole entry): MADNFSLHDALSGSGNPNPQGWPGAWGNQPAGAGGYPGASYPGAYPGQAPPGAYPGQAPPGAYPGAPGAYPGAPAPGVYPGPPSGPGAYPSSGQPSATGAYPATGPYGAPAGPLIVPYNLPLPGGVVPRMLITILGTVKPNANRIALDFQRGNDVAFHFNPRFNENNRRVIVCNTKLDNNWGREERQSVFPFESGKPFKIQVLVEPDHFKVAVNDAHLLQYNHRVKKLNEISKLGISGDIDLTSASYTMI
Method: (§3) To determine the half maximal effective concentration (EC50) of the antibodies, ELISA dose-response experiments were performed on Hu-Gal3-FL and on m-Gal3-FL.
(§4) Hu-Gal3-FL and m-Gal3-FL were immobilized at 3 μg/mL through their His-tag on functionalized microplates as before. A 3.3-fold serial dilution was carried-out with the purified IgGs, added to the wells containing immobilized Hu-Gal3-FL or m-Gal3-FL and detected with an anti-Fab.HRP antibody.
(§5) Human/mouse Gal3 EC50 ratio were estimated according to EC50 values (sigmoidal dose-response equation: Y=Bottom+X*(Top−Bottom)/(EC50+X)), a low ratio indicating a high cross-reactivity.

m-Gal3-FL = molecular target: T3, m-Gal3-FL (Mus musculus, UniProt P16110); assay: ELISA dose-response EC50 on mouse Gal3; settings: ELISA binding on m-Gal3-FL
T3 construct: made in house
T3 sequence (P16110 whole entry): as the sequence (P16110 whole entry) above
Method: as §3, §4, §5

[2] = molecular target: T4, recombinant human Gal3 full-length (Hu-Gal3-FL) (Homo sapiens, UniProt P17931); assay: SPR (Biacore T-200) affinity on human full-length Gal3; format: binding; settings: full-length Gal3, 25° C.
T4 construct: recombinant human Gal3 full-length (Hu-Gal3-FL); purchased Novalix
T4 sequence (P17931 whole entry): as the sequence (P17931 whole entry) above
Method: The interaction of the anti-Gal3 antibody with recombinant human Gal3 full-length (Hu-Gal3-FL) and murine Gal3 (m-Gal3-FL) (from Novalix) was monitored by surface plasmon resonance (SPR) detection using a Biacore T-200 instrument.
Binding studies were performed in freshly prepared, filtered and degassed running buffer containing 10 mM HEPES, 150 mM NaCl, and 0.05% P20 (HBS-P, Cytiva Life Sciences) at 25° C. Before performing the binding studies, the CM5 sensor surface immobilized with anti-human Fc mAb was equilibrated with HBS-P by priming the instrument at least three to four times.
The CM5 sensor surface was first immobilized with an anti-human Fc mAb using a standard protocol. The entire sensor surface was first activated by injecting a 1:1 (v/v) mixture of 400 mM EDC and 100 mM NHS at a flow rate of 10 μL/minute for 7 minutes. Monoclonal anti-human Fc antibody (Millipore AP113), 25 μg/mL in Na acetate pH5, 360 s were flowed at 10 μL/minute to reach 10000 RU on both flow cells followed by the injection of 1 M ethanolamine, pH8.5 for 7 minutes at a flow rate of 10 μL/minute. During the entire immobilization procedure, HBS-P was used as the running buffer.
Antibody samples were prepared at 5 μg/ml and were injected for 30 seconds at 10 μL/minute. In general, 400 to 680 resonance units of antibodies were captured on the chip.

Molecule	IgG binding to human Gal3 (Hu-Gal3-FL, Hu-Gal3-CRD) by ELISA [1]	IgG binding to murine Gal3 (m-Gal3-FL) by ELISA (murine Gal3 (m-Gal3-FL))	hGal3 EC50 (Hu-Gal3-FL)	mGal3 EC50 (m-Gal3-FL)	Kd [2] [nM]
B1	Lower binding signals	Lower binding signals	too high to be determined	too high to be determined	
B2					4.9
